# From publication PMC7943553, “Naturally acquired blocking human monoclonal antibodies to Plasmodiumvivax reticulocyte binding protein 2b” (Nature Communications, 2021)
# Substitutions are numbered along the chain they refer to.
# B1: PvRBP2b human mAb 243244 (antibody, V domains shown)
# VH: QVQLVESGGGVVQSGKSLRVSCAASGFTFSSYGMHWVRQAPGKGLEWVAFISYDGDNKYSADSVKGRLTISRDNSKNTLYLQMNSLRPEDTAVYYCAKESNYGENAFDIWGQGTMVTVSS
# VL: QSALTQPRSVSGSPGQSVTISCTGTSSDVGFYNFVSWYQHHPGKAPKLIIYDVSERPSGVPDRFSGSKSGNTASLSISGLQPEDEADYYCCSYAGTYTFVFGSGTKVTVL
# notes: variable region as the Fab heavy chain in PDB 6WNO; cloned into a human IgG1 backbone, full-length antibody; lambda light chain; as the Fab light chain in PDB 6WNO; IgG1; same clonal group as 237235; source: Expi293 HEK cells, transfected, purified (Protein A, gel filtration)
# B2: PvRBP2b human mAb 237235 (antibody, V domains shown)
# VH: QVQLVESGGGVVQPGRSLRLSCAASGFMFNSYGMHWVRQAPGKGLEWMAFISYDGSDDYYGDSVKGRITISRDNSKNTLFLHINSLRTEDTAVYYCAKESNYGENAFDVWGHGTMVTVSS
# VL: B1 VL with S27N, I49M, S54T, S76T, P82A, D87E, S103H
# notes: variable region as the Fab heavy chain in PDB 6WM9; cloned into a human IgG1 backbone, full-length antibody; lambda light chain; as the Fab light chain in PDB 6WM9; IgG1; same clonal group as 243244; source: Expi293 HEK cells, transfected, purified (Protein A, gel filtration)
# B3: PvRBP2b human mAb 253245 (antibody, V domains shown)
# VH: EVQLVQSGAEVKKPGSSMKVSCKASGGTFNRYVFSWVRQAPGQGLEWMGGILPILETTYYAKNFKGRVTITADESTSTVYMELSSLTSEDTAVYFCARDEHDYVWGSYRPSLTGPWGQGTLVTVSS
# VL: QSALTQPPSTSGSPGQSVTISCTGTGIDVGGFSYVSWFQYHPGKAPKLIIFEVTKRPSGVPDRFSGSKSGNTASLTISGLQADDEAEYYCSSYAVNNNFVFGTGTKVTVL
# notes: variable region as the Fab heavy chain in PDB 6WTY; cloned into a human IgG1 backbone, full-length antibody; lambda light chain; as the Fab light chain in PDB 6WTY; IgG1; source: Expi293 HEK cells, transfected, purified (Protein A, gel filtration)
# B4: PvRBP2b human mAb 258259 (antibody, V domains shown)
# VH: EVQLLESGGGLVRPGGSQRLSCAASGFTFTPYAMTWVRQAPGKGLEWLSTISGSGGSTYYADSVKGRFTISRDNSKNMLYLQMNSLTAEDTALYYCTKDKDEYTFGHNAFDVWGQGTMVTVSS
# VL: SYELTQAPSVSVAPGQTARITCGGDNIGRKTVNWYQQKPGQAPVLVIYYDNDRPSGIPERFSGSNSGNMATLSISRVEVGDEADYYCQVWDSNNDHPVFGGGTKLTVV
# notes: variable region as the Fab heavy chain in PDB 6WTV; cloned into a human IgG1 backbone, full-length antibody; lambda light chain; as the Fab light chain in PDB 6WTV; IgG1; same clonal group as 273264; source: Expi293 HEK cells, transfected, purified (Protein A, gel filtration)
# B5: PvRBP2b human mAb 273264 (antibody, V domains shown)
# VH: B4 VH with Y59S, M78I, N84D, T87R, Q115R
# VL: B4 VL with K30T, T31S, N33H, Y48F
# notes: variable region as the Fab heavy chain in PDB 6WTU; cloned into a human IgG1 backbone, full-length antibody; lambda light chain; as the Fab light chain in PDB 6WTU; IgG1; same clonal group as 258259; source: Expi293 HEK cells, transfected, purified (Protein A, gel filtration)
# B6: PvRBP2b human mAb 251249 (antibody, V domains shown)
# VH: EVQLVESGGGLVKPGGSLRLSCEASGFLFSSYSMNWVRQAPGKGLEWVSSITGYSSEVFYTDSVKGRFTVSRDNSKNSLYLQMDSLRAEDTAVYYCARALTIFGVVITDYWFFDLWGRGTLVTVSS
# VL: EIVLTQSPATLSLSPGDRATLSCRASQSVTTFLAWYQQKPGQAPRLLIYDVSNRATGIPARFSGSGSGTDFTLTISSLEPEDFAVYYCQQRSNWGLTFGGGTKVEIK
# notes: variable region as the Fab heavy chain in PDB 6WOZ; cloned into a human IgG1 backbone, full-length antibody; kappa light chain; as the Fab light chain in PDB 6WOZ; IgG1; source: Expi293 HEK cells, transfected, purified (Protein A, gel filtration)
# B7: PvRBP2b human mAb 241242 (antibody, V domains shown)
# VH: EVQLLESGGGLVQPGGSLRLSCAVSGFTFRNYALSWVRQAPGKGLDWVSTISASGGATYYADSVKGHFTISRDNSKNILYLDMKSLRAEDTAIYYCARDGGSYTPYFFLDSWGQGALVTVSS
# VL: SYELTQPASVSVAPGQTAQITCGGNSIGRKSIHWYQHKPGQAPVLVISYDSDRPSGIPERFSGSNSGNTATLTISKVEAGDEADFYCQVRDSDNDHVVFGGGTKLTVL
# notes: variable region as the Fab heavy chain in PDB 6WN1; cloned into a human IgG1 backbone, full-length antibody; lambda light chain; as the Fab light chain in PDB 6WN1; IgG1; also called 241424 [sic]; source: Expi293 HEK cells, transfected, purified (Protein A, gel filtration)
# B8: PvRBP2b human mAb 283284 (antibody, V domains shown)
# VH: QVQLQQWGAGLLKPSETLALTCTVYGGSSSGYYWNWIRQSPGKGLEWIGEISDSGSTIYNPSLESRVTMSVDTSKNQFSLKLTSVTAADTAVYYCAKAILTRYNWLDPWSQGTLVTVSS
# VL: DIVMTQSPSSLSASVGDRISISCRASQGVNSALAWYQQKPGKAPKLLIYDASTLESGVPSRFSGSGSGTDFALTINSLQPEDFATYYCQQFNSYPLTFGGGTKVEIK
# notes: variable region as the Fab heavy chain in PDB 6WQO; cloned into a human IgG1 backbone, full-length antibody; kappa light chain; as the Fab light chain in PDB 6WQO; IgG1; source: Expi293 HEK cells, transfected, purified (Protein A, gel filtration)
# B9: P. vivax Reticulocyte Binding Protein 2b, residues 161–1454 (domain or fragment, P. vivax strain Salvador I, UniProt A5K736 161-1454, looked up)
# chain: PSPESTQITNTTDNIDYFDISDESNYYLISQLRPHFSNIYFFDEFKRYASYHTEIKRYEDIHKTKVNSLLNEASRAIGICNRAKNTVKGLINILENPQKFKTQRESYDVKLRQYEEKKEAFRGCLLNKNRKNLDQIKKINNEIRDLLEKLKCSQDCQTNVYFDMIKIYLVDFKKMPYENYDTFIKQYKNSYLSGVDMIRKIEKQIDNPVTINAIKFTQKEMGYIIDRFEYHLQKVKHSIDQVTALSDGVKPKQVTKNRLKEYYFNIGNYYSIFKFGKDSLNMLNKALIHKEKIVHNLLGELFGHLEERISKLIDSEYFITESNNIISQSEETLKLAEDVYDKNTKLIEDLTLYPHLEINEFKKDYDNNVEDLRESIIYIQSYVSSIKSAYRYNVLEKDSVESKQKNIPANSNAQKKVDELLSIIDSISYSNFSVAENFQKMKDYYKEIEKLKIKILQLIEAIKKYQQHVEELINKEKAVAILKEDINKIIEYIKGIIEKLKQLISANKDFDKIFQQVEQLINEALFNKDQFEHNKNDLHTKMKEIMHTFHERDLQQFLDNMSKFLKDQEASYQNADSKEKLDQLLTTVKAKQDELKEMKCDDIPDIIDNLKKESQNVLNLKDEVINKQFENMRTEMSSSLDQMTKEYNALKSSIEEYEAEKKGIENHKQNIIKRKNTFIVAEHENDEDVPEGKNTYNEFISNKDTILQKESAISNQMNTLEEKKRNRKTTLQTYGDAIQKLETYTEKKDEETKVLLDKFNTEVENFKLDEDEKSFNDAKSIVSNTINEVENENKNIDSIKKVNIAMKRSRSNQQSVEQLIRNKDNLLKEKMEKHFQKINTDEIIGQSAKANLLNNLESEKAIINEQLNDAHLNDLKLQIEKTLSYCEKSRENIKGNNGTHPEELNASEIEWEATKGKIETLNSNYQALNKNMDDIINKQHDEMIVLIDRDIKEKGKDIELKVEQRIQALEKMKAKLSSFDTNEDVKKYQSDINKEELIKLKEMSTAVLNKIDQNKNQLINVKTKSSGYVAESNGIKNKQTEPSQEKDKQIVYNTNRGDIEKVYKNIRDMYNELDDVEKEETTSNEVDNIEMQYDRLLINLLVQKINEENTKAKGLMEEIKSYIENIESVQAKMSDETREGATEFEFNQYQQSSLANDKKITEIVQHAINKKGEAERSKKTNEVKSIKNDVNTYMQQVIDEYNAMQKALGDIKNVNDLLISTSGRRIAEEISKSTNEAENFEKQAKGELGKINDIIEKMENQMVQAKEHENKIHINLEDKQIDEEVQKIRQIHEE
# modifications: DyLight 488 (NHS ester) in the FRET assay; biotin (BirA site) in the competition ELISA between human mAbs
# notes: PvRBP2b, P. vivax strain Salvador I, PlasmoDB PVX_094255 (total length 2806 amino acids), residues 161-1454; also called PvRBP2b_(161–1454); PvRBP2b; source: recombinant; expressed and purified in a similar manner as PvRBP2b161–470 (E. coli SHuffle T7; HisTrap, Q-Sepharose, size exclusion) or as previously described
# Target: T1, P. vivax Reticulocyte Binding Protein 2b, residues 161–1454 (P. vivax strain Salvador I, UniProt A5K736, DyLight 488 (NHS ester) in the FRET assay; biotin (BirA site) in the competition ELISA between human mAbs)
# T1 construct: PvRBP2b, P. vivax strain Salvador I, PlasmoDB PVX_094255 (total length 2806 amino acids), residues 161-1454; also called PvRBP2b_(161–1454); PvRBP2b; source: recombinant; expressed and purified in a similar manner as PvRBP2b161–470 (E. coli SHuffle T7; HisTrap, Q-Sepharose, size exclusion) or as previously described
# Experiment: flow cytometry on cells; PvRBP2b161–1454 at 4 μg/mL with human mAbs at 5-fold molar excess and reticulocytes, 1 h room temperature; inhibition relative to no mAb
# Conditions: both partners purified
row,Binder,percent inhibition of PvRBP2b161–1454 binding to reticulocytes
1,B1,43%
2,B2,47%
3,B3,> 98%
4,B4,> 98%
5,B5,> 98%
6,B6,59%
7,B7,> 98%

# Target: T1, P. vivax Reticulocyte Binding Protein …
# Experiment: ELISA; avidity ELISA: plates coated with 50 ng PvRBP2b161–1454; human mAbs at 0.2 µg/mL; then PBS, 0.5, 1 or 2 M NH4SCN for 20 min; binding relative to no NH4SCN
# Conditions: both partners purified
Binder,percent binding left at 1 M NH4SCN,percent binding left at 2 M NH4SCN
B8,< 75%,
B1,,> 75%
B2,,> 75%
B3,> 75%,< 75%
B4,< 75%,
B5,< 75%,
B6,< 75%,
B7,> 75%,< 75%

# Target: T1, P. vivax Reticulocyte Binding Protein …
# Experiment: ELISA; plates coated with 65 nM recombinant protein in PBS at 4 °C overnight; human mAbs at 1 μg/mL, 1 h room temperature; HRP anti-human secondary; specificity panel and PvRBP2b fragments
# Conditions: both partners purified
row,Binder,fold signal over control mAbs 099100 and 043038
1,B8,> 20 fold
2,B1,> 20 fold
3,B2,> 20 fold
4,B3,> 20 fold
5,B4,> 20 fold
6,B5,> 20 fold
7,B6,> 20 fold
8,B7,> 20 fold

# Target: T2, human Transferrin receptor 1 – Transferrin (human, UniProt P02786 121-760; P02787 20-698, DyLight 594 (NHS ester) in the FRET assay)
# T2 construct: soluble ectodomain of human transferrin receptor 1, residues 121-760; follows the GP67 leader peptide, a 6xHis-tag and a factor Xa site; transferrin purified from human serum (apo-transferrin), loaded with iron to holo-transferrin; TfR1 and Tf were mixed with PvRBP2b in equal amounts in the assays; also called TfR1–Tf; TfR1 and Tf; copies: 2 + 2
# T2 sequence (P02786 121-760, chain 1 of 2): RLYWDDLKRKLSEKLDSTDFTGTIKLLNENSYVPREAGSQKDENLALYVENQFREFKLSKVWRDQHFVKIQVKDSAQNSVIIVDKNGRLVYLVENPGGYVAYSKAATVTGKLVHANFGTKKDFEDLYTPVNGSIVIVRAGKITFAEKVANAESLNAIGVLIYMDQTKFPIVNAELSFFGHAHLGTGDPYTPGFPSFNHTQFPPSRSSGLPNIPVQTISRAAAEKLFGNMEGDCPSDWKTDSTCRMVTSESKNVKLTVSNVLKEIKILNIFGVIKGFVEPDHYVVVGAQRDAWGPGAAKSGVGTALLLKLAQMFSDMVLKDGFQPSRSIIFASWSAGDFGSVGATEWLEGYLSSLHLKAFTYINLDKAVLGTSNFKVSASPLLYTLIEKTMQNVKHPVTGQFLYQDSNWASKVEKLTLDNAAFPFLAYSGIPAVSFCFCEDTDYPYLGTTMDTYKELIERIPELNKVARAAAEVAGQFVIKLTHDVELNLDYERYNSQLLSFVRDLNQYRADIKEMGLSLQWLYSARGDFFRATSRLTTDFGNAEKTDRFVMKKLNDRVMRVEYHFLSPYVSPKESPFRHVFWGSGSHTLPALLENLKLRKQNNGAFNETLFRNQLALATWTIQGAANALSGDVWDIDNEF
# T2 sequence (P02787 20-698, chain 2 of 2): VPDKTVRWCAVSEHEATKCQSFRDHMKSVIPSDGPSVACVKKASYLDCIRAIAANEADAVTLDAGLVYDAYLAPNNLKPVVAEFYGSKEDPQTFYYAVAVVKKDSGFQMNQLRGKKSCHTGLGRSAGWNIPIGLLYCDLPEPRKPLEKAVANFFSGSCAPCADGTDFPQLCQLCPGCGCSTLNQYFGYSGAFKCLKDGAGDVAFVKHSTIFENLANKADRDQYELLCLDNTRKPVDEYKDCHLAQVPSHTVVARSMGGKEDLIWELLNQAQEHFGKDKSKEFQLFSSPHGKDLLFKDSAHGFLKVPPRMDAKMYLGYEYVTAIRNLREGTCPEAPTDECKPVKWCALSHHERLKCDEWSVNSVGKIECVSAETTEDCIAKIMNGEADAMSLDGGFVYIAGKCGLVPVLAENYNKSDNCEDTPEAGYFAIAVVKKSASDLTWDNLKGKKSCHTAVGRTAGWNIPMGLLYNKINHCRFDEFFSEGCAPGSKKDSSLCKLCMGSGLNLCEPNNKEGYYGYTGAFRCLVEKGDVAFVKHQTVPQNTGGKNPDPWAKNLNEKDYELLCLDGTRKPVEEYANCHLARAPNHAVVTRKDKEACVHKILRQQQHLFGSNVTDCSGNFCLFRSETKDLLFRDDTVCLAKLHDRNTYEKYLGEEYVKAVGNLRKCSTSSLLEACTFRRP
# Experiment: FRET or BRET; PvRBP2b161–1454-DL488, TfR1-DL594 and Tf at 1:1:1 molar ratio, 5-fold excess of human mAbs; 50 mM Tris-HCl pH 6.8, 150 mM NaCl, 0.01% BSA
# Conditions: both partners purified
row,Binder,binding result
1,B9,binds

# Target: T1, P. vivax Reticulocyte Binding Protein …
# Experiment: as above
# Conditions: both partners purified
row,Binder,percent decrease in FRET signal of PvRBP2b161–1454 with TfR1–Tf
1,B3,> 70%
2,B4,> 70%
3,B5,> 70%
4,B7,> 70%
